Source: article PMC7210950 (2020)
Square brackets hold non-standard residues; d marks the D form. Ends that are not written are not given here. pY = N[C@@H](Cc1ccc(OP(=O)(O)O)cc1)C(=O)O

Assays:
Experiment in all cases: FP
[1] = target: Btk SH2 domain R372G (XLA mutation) (human, UniProt Q06187 271-383, R372G)
[2] = target: Btk SH2 domain H364D (XLA mutation) (human, UniProt Q06187 271-383, H364D)
[3] = target: Btk SH2 domain S371P (XLA mutation) (human, UniProt Q06187 271-383, S371P)
[4] = target: Btk SH2 domain K296E (XLA mutation) (human, UniProt Q06187 271-383, K296E)
Sequence of Btk SH2 domain K296E (XLA mutation) (Q06187 271-383 K296E): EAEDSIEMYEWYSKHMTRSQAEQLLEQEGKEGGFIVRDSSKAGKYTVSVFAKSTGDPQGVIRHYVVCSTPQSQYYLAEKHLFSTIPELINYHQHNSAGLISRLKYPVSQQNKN

[5] = target: Btk SH2 domain, wild-type (recombinant) (human, UniProt Q06187 271-383)
Sequence of Btk SH2 domain, wild-type (recombinant) (Q06187 271-383): as the sequence (Q06187 271-383 K296E) above, with E26K counted along it

[6] = target: Btk SH2 domain K374N (XLA mutation) (human, UniProt Q06187 271-383, K374N)
Sequence of Btk SH2 domain K374N (XLA mutation) (Q06187 271-383 K374N): as the sequence (Q06187 271-383 K296E) above, with E26K, K104N counted along it

Sequence of Btk SH2 domain H364D (XLA mutation) (Q06187 271-383 H364D): as the sequence (Q06187 271-383 K296E) above, with E26K, H94D counted along it
Sequence of Btk SH2 domain R372G (XLA mutation) (Q06187 271-383 R372G): as the sequence (Q06187 271-383 K296E) above, with E26K, R102G counted along it
Sequence of Btk SH2 domain S371P (XLA mutation) (Q06187 271-383 S371P): as the sequence (Q06187 271-383 K296E) above, with E26K, S101P counted along it

## ADND[pY]IIPLPD (also: FITC label, end not given here) [FITC-labeled pY-peptide (ADNDpYIIPLPD)]
[1]
  Kd: 5.8 µM
[2]
  Kd: 6.9 µM
[3]
  Kd: 5.7 µM
[4]
  Kd: 21.8 µM
[5]
  Kd: 7.1 µM
[6]
  Kd: 8.7 µM
